{"source": "paper PMC10213050", "about": "(Nature Communications, 2023)", "binders": {"B1": {"name": "90-nt ssDNA (ssDNA)", "DNA": "CGACAGGTCATGGCCGTACATGATATCCTCGAGCGTCCTGTTGCAACTTACACTCTGAATAGCCGAATTCTTAGGGTTAGGGTTAACA"}}, "key": {"hRad51;RNF20N": {"target": "hRad51;RNF20N (Homo sapiens;Homo sapiens, UniProt Q06609;Q5VTR2 1-339;1-300, |)", "sequence (Q06609 whole entry, chain 1 of 2)": "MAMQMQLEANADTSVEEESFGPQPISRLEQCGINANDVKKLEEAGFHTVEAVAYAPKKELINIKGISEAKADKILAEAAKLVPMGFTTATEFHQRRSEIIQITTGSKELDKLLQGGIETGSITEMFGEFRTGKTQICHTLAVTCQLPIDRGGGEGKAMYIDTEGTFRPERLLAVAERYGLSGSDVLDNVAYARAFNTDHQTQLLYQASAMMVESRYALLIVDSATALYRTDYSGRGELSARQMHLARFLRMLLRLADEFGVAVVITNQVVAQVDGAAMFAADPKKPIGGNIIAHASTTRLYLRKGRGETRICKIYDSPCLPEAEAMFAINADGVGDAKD", "sequence (Q5VTR2 1-300, chain 2 of 2)": "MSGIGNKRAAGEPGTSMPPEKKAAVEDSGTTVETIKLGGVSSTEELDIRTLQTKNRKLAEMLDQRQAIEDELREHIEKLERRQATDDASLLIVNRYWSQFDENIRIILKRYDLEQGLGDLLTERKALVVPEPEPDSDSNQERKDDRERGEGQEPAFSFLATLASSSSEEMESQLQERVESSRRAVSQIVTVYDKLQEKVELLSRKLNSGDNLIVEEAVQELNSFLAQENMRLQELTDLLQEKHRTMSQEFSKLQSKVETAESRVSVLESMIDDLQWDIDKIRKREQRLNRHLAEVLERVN", "experiment": "pull-down; ATP; RNF20N stimulates hRad51 binding and is co-captured; Pull-down: 42 mM Tris-HCl pH 7.5, 15 mM KCl, 90 mM NaCl, 2 mM ATP, 1 mM EDTA, 0.5% NP-40, 1 mM DTT, 20 ug/mL BSA, 5% glycerol, 37 C; EMSA: 42 mM MOPS pH 7.2, 3", "settings": "protein: recombinant;recombinant; tags: 6xHis or GST-cleaved;GST (pGEX-6p-1); label: 5'-biotin"}, "Srs2": {"target": "Srs2 (Saccharomyces cerevisiae (yeast), UniProt P12954 1-1174)", "sequence (P12954 whole entry)": "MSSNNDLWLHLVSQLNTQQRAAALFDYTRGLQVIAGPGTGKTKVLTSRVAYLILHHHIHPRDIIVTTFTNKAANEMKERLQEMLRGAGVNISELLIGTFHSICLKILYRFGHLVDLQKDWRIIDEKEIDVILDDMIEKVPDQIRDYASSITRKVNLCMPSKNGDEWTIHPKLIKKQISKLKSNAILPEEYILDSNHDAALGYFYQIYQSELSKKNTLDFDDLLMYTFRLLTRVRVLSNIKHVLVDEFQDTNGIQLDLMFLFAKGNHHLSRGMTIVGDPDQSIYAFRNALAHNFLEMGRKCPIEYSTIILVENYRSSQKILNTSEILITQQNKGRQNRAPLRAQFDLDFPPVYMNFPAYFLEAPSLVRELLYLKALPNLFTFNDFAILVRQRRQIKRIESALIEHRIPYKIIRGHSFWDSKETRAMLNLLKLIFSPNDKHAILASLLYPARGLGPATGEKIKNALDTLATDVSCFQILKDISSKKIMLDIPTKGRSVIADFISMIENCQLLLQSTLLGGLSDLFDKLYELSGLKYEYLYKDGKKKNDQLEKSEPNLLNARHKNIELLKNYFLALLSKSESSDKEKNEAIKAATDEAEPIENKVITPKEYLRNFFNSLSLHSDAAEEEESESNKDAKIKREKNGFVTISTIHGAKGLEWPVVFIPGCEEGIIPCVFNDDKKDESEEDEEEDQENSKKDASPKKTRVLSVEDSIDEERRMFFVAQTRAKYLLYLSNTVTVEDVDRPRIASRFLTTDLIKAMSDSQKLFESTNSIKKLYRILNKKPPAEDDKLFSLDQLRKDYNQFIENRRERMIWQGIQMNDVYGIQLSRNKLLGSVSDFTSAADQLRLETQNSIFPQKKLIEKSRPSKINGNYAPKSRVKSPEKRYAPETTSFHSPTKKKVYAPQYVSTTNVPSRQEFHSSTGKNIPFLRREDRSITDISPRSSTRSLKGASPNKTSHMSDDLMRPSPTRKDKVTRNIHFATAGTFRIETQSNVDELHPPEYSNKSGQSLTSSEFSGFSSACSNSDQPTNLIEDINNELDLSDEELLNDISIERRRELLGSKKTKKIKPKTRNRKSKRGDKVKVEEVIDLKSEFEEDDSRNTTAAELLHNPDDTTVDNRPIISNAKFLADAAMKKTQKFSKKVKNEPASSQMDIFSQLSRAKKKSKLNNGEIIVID", "experiment": "pull-down; 200 nM ssDNA; Pull-down: 42 mM Tris-HCl pH 7.5, 15 mM KCl, 90 mM NaCl, 2 mM ATP, 1 mM EDTA, 0.5% NP-40, 1 mM DTT, 20 ug/mL BSA, 5% glycerol, 37 C; EMSA: 42 mM MOPS pH 7.2, 3", "settings": "protein: recombinant; tags: GST (pGEX-6p-1); label: 5'-biotin"}, "Rad51": {"target": "Rad51 (Saccharomyces cerevisiae (yeast), UniProt P25454 1-400)", "sequence (P25454 whole entry)": "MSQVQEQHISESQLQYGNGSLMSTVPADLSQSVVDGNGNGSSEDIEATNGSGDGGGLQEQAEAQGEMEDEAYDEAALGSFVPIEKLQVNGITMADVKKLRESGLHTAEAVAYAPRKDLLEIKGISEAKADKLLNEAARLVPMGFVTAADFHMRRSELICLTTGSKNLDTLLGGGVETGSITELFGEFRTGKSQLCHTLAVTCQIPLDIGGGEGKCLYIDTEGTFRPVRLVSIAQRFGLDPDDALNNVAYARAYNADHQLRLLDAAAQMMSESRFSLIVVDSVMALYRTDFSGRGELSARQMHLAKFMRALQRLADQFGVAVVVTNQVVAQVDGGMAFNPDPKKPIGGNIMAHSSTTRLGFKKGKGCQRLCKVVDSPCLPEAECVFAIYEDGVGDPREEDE", "experiment": "pull-down; ATP; Pull-down: 42 mM Tris-HCl pH 7.5, 15 mM KCl, 90 mM NaCl, 2 mM ATP, 1 mM EDTA, 0.5% NP-40, 1 mM DTT, 20 ug/mL BSA, 5% glycerol, 37 C; EMSA: 42 mM MOPS pH 7.2, 3", "settings": "protein: recombinant; tags: 6xHis (pET30a) or GST-cleaved; label: 5'-biotin"}, "hRad51": {"target": "hRad51 (Homo sapiens, UniProt Q06609 1-339)", "sequence (Q06609 whole entry)": "as the sequence (Q06609 whole entry, chain 1 of 2) above", "experiment": "pull-down; ATP; Pull-down: 42 mM Tris-HCl pH 7.5, 15 mM KCl, 90 mM NaCl, 2 mM ATP, 1 mM EDTA, 0.5% NP-40, 1 mM DTT, 20 ug/mL BSA, 5% glycerol, 37 C; EMSA: 42 mM MOPS pH 7.2, 3", "settings": "protein: recombinant; tags: 6xHis or GST-cleaved; chain copies: 10; label: 5'-biotin"}, "Rad51;Bre1": {"target": "Rad51;Bre1 (Saccharomyces cerevisiae …, UniProt P25454;Q07457 1-400;1-700, |)", "sequence (P25454 whole entry, one chain of several)": "as the sequence (P25454 whole entry) above", "experiment": "pull-down; ATP; Bre1 stimulates Rad51 binding and is co-captured; Pull-down: 42 mM Tris-HCl pH 7.5, 15 mM KCl, 90 mM NaCl, 2 mM ATP, 1 mM EDTA, 0.5% NP-40, 1 mM DTT, 20 ug/mL BSA, 5% glycerol, 37 C; EMSA: 42 mM MOPS pH 7.2, 3", "settings": "protein: recombinant;recombinant; tags: 6xHis (pET30a) or GST-cleaved;6xHis; label: 5'-biotin"}, "Bre1": {"target": "T1, Bre1 (Saccharomyces cerevisiae (yeast), UniProt Q07457 1-700)", "T1 sequence": "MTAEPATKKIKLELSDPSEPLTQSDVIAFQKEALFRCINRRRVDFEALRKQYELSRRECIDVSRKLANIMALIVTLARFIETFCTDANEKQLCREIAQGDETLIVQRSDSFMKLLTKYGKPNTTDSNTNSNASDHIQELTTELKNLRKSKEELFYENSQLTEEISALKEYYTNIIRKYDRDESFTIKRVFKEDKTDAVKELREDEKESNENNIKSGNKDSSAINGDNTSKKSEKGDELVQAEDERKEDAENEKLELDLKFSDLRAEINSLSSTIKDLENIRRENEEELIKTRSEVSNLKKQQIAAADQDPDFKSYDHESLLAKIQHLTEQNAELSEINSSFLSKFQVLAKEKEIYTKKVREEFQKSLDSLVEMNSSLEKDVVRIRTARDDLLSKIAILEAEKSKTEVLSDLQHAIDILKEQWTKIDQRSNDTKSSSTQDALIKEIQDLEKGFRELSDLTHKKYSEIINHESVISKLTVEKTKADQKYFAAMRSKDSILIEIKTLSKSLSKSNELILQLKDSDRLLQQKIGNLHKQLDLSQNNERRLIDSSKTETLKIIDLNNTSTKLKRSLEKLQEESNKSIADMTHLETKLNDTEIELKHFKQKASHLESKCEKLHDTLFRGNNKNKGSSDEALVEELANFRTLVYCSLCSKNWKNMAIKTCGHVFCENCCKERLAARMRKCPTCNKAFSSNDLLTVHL", "experiment": "pull-down; Bre1 alone; Pull-down: 42 mM Tris-HCl pH 7.5, 15 mM KCl, 90 mM NaCl, 2 mM ATP, 1 mM EDTA, 0.5% NP-40, 1 mM DTT, 20 ug/mL BSA, 5% glycerol, 37 C; EMSA: 42 mM MOPS pH 7.2, 3", "settings": "protein: recombinant; tags: 6xHis; label: 5'-biotin"}, "RNF20N": {"target": "RNF20N (Homo sapiens, UniProt Q5VTR2 1-300)", "sequence (Q5VTR2 1-300)": "as the sequence (Q5VTR2 1-300, chain 2 of 2) above", "experiment": "pull-down; RNF20N alone; Pull-down: 42 mM Tris-HCl pH 7.5, 15 mM KCl, 90 mM NaCl, 2 mM ATP, 1 mM EDTA, 0.5% NP-40, 1 mM DTT, 20 ug/mL BSA, 5% glycerol, 37 C; EMSA: 42 mM MOPS pH 7.2, 3", "settings": "protein: recombinant; tags: GST (pGEX-6p-1); label: 5'-biotin"}}, "data": [{"binder": "B1", "values": [{"measurement": "binding result", "setting": "hRad51;RNF20N", "value": "binds"}, {"measurement": "binding result", "setting": "Srs2", "value": "binds"}, {"measurement": "binding result", "setting": "Rad51", "value": "binds"}, {"measurement": "binding result", "setting": "hRad51", "value": "binds"}, {"measurement": "binding result", "setting": "Rad51;Bre1", "value": "binds"}, {"measurement": "binding result", "setting": "Bre1", "value": "no binding"}, {"measurement": "binding result", "setting": "RNF20N", "value": "no binding"}]}]}
